B1: SMTNL2 (parent)
chain: QKNFELAFTMAENLANCERLIEVE
B2: PKD2L1 (parent)
chain: SGPEAARAGGWVSGEEFYMLTRRV

Variants of: B1
Assay: protein stability index of a GFP-peptide fusion (GPS, HEK-293T) (PSI 1-6); higher = more stable
Details: c terminus: a fixed tail appended
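Note: lentivirally expressed fusions sorted by FACS into six bins by GFP to DsRed ratio, PSI derived from sequencing read proportions per bin multiplied by bin number.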

Protein stability index: each site, then its substitutions
C17: Y 2.78, R 3.51, S 2.28, T 1.39, V 2.02
L20: M 1.35, G 2.97, F 2.15, D 4.42, C 2.1, T 2.25, E 2.92, P 3.58, I 2.31, S 3.52, H 2.69, N 4.06, W 1.38, K 2.46, A 2.55, Q 1.61, V 1.27, Y 2.08, R 2.12
I21: Q 3.72, E 4.62, Y 2.99, D 4.39, H 3.17, K 3.46, F 2.29, R 2.44, T 4.29, A 3.25, P 4.14, M 2.61, N 3.95, G 3.85, W 3.67, V 2.96, S 4.54, C 3.27
E18: H 2.64, K 2.04, P 2.6, T 2.18, Y 3.75, R 1.85, L 1.59, N 2.22, G 1.84, V 1, C 2.68, S 2.65, Q 1.97, M 2.73, D 2.98, A 2.09, I 4.4
V23: I 1.78, N 1.69, P 2.98, K 1.66, C 2.21, W 1.63, F 2.36, T 3.11, A 2.18, R 2.21, Y 3.99, G 2.04, D 1.77, L 2.34, E 2.93, H 2.73, S 2.25, M 4.25, Q 1.3
E22: K 2.71, T 3.65, P 2.82, I 2.9, G 1.55, M 2.94, H 1.88, D 1.72, A 3.4, N 1.68, C 2.79
R19: M 2.86, S 2.55, Q 1.9, V 1.27, C 1.83, H 1.97, N 3.03, W 3.89, P 3.57, T 2.61, L 1.55, G 2.92, E 3.33, I 2.57, K 1.52, A 1.84, F 2.86
E24: H 1.6, T 1.95, L 1.56, I 1.03, G 2.13, K 2.22, C 1.42, N 2.11, R 2.4, D 1.62, V 1.45, A 2.84, M 1.89, F 3.44, S 1.36, P 2.15, Q 1.33, Y 2.13

Variants of: B2
Assay: as above
Details: c terminus: a fixed tail appended

Protein stability index: each site, then its substitutions
P3: F 1.83, K 2.37, H 2.32, C 2.11, T 2.4, Q 2.44, L 1.91, N 2.59, Y 1.49
G2: V 2.27, Q 2.64, C 1.67, K 1.8, R 2.24, A 2
G14: F 1.76, E 3.18, L 2.04, I 2.63, T 3, Y 2.08, D 3.91, N 3.21, S 2.6
W11: G 3.28, L 3.09, N 3.85, R 3.19, F 2.05, T 3.09, Q 3.92, E 4.09, S 2.89, V 3.19, H 4.33
Y18: C 3.05, F 2.23, K 4.08, N 3.69, P 3.21, R 3.55, G 3.44, I 2.32, W 2.69, L 2.56, T 3.52, E 3.77, D 3.94
L20: P 3.94, G 4.08, N 3.79, C 2.97, Y 2.74, R 3.79, V 2.25, I 2.01
V12: D 2.91, C 2.46, S 3.38, H 1.84, A 2.51, G 3.15, E 3.52
A5: S 1.96, C 1.98, R 2.4, P 2.2, F 2.24, Q 2.45, D 2.71, I 2.33, V 3.28
T21: I 1.75, V 1.57, N 2.9, M 2.67, Y 1.6, K 3.71, E 3.29, L 2.62
E4: I 2.02, S 3.46, V 1.56, N 2.64, H 2.28, Q 1.57, W 1.3, Y 1.92
M19: R 3.11, K 3.1, G 3.03, I 2.01, Q 3.38, T 2.94, W 2.68, L 3.28
V24: L 1.98, M 1.71, E 3.16, N 2.66, F 1.71, Y 2.07, P 2.81, H 2.72, S 2.67, T 2.98
E15: W 1.99, V 2.03, A 1.86, S 2.1, D 2.54, Q 2.16, N 2.46
R23: M 1.84, L 1.53, H 2.05, S 2.97, C 2.14, K 2.45
R7: T 2.44, Q 3.04, E 2.75, K 2.72, G 2.24, L 2.58, N 2.44, I 2.11, M 2.64, S 2.42
G9: S 2.42, F 2.06, C 1.59, T 1.92, A 1.92, N 2.13, P 2.39, Q 2.51, I 2.25, L 2.95, R 1.95
R22: D 3.43, G 2.33, C 1.55, K 2.04, S 2.55, H 1.96, T 1.33
S1: Y 1.46, H 2.53, T 2.68, F 1.12, N 2.65, I 2.64, W 2.85
A6: W 1.06, S 3.01, P 2.21, D 2.35, Q 2.13, T 2.86
F17: E 4.26, S 3.58, H 3.33, I 2.67, V 2.5, L 2.85, P 3.89, Y 2.79, N 3.89, T 3.37, M 3.27
A8: Y 1.76, N 2.18, Q 2.65, E 3.22, V 2.25, K 2.13, H 1.81, M 1.8, G 2.15, T 2.24, C 1.97
E16: A 1.92, K 2.5, C 1.56, I 2.23, Q 2.25, H 1.64, N 2.42, L 1.76, M 2.7, W 2.42
S13: L 1.77, Q 3.19, H 2.74, T 2.13, C 2.08, N 2.26, K 2.05, F 2.44, M 2.14
G10: C 1.82, M 2.31, T 2.73, I 3.36, A 2.22, P 2.37, R 2.56, Y 1.79, E 3.31
